# Test: soluble on expression in E. coli; label from the status in PepcDB or PDB records
row,Sequence,soluble on expression in E. coli
1,MHKKADQPFMKEKRGSKLTVRAMPIQSKNLQISGICDVVEFVQDSEGIELSGVSGSYKAFPVEYKRGKPKKGDEDIVQLVAQAMCLEEMLVCRIDKGYLFYNEIKHRVEVPITDALRDKVVQMAKEMHHYYENRHTPKVKTGPFCNNCSLQSICLPKLMNKRSVKRYIEGRLSELEHHHHHH,not soluble
2,MHKNREKNAMRREVNRADIGGKSGNKVKDCHVTIIRSLLSQIKENSLRVLLTYRKLFTINTKIAVEFIINSCIVYYKRSPHLL,not soluble
3,MHKYRLVAKKGEGTFSEVLKAQCIKNGKYVAIKCMKNHFDSLDQVNNLREIQALRRLSPHANIIKLLEVLYDQPTGRLALVFELMDMNIYELIRGRRHYVAEERIKNYMYQLMKSMDHMHRNGIFHRDIKPENILIMDDCLKLADFGSCRGIYSKQPYTEYISTRWYRAPECLLTDGYYNYKMDMWGVGCVFFEIVSLFPLFPGTNELDQITKIHNILGTPPPDLLAKMKKRSAHMDFNFPPKEGSGVAKLIPHVNPECVDLIVKLLMYNPDERLSARQALRHPYFRDLREAEKRQKALLAPDVSNHFTAMEADKARQQQTVSSTGSDHEHPTSAGGDGGAGTGAVGTHDGSAAAAAAAAALPSISGARGHAGPEGGHDNDMG,not soluble
4,MHLYNLTLQGQSAINQAIQGNFSGTPKAQEIVVGRGSALELLTLDTVTGKIKVMCHQDIFGIVRSLLAFRLTAGTRDFIAVGSDSGRIVILQYNAEKTCFERLHQETFGKTGCRRIVPGHFLVGDPRGRALMIGAVERQKLVYIMNRDSEAHLTISSPLEAHKHHTLCYAMVGIDVGFENPTFACLEFDYEDADNDPTGEAAKRTQQTLTFYELDLGLNHVVRKYAEPLNDPGNLLIAVPGGNDGPSGVIVCCENYLVYKNLGDQPDIRCPIPRRRNELDDADRTMLIIATATHKTKNMYFFLVQAENGDIFKVTLETDEDLVSEMKLKYFDTVPPANALCILKSGFLFVAAEFGNHELYQIASLGEGDDDEFSSAMGFGENDAAFFEPHELKSLIPIDSMDSLSPLTDAVIGDIAREDAAQIYSLVGRGARSSLKVLRNGLEISEMAVSDLPGNPNAVWTVKKNIEDQYDSYIVVSFVNATLALTIGDTVEEASDSGFLPTTPTIGCAMIGDDSLVQIYSEGIRHIRADKRINEWKAPPRRQIVKCAVNRRQVAVALTGGELVYFELDLNGTLNEFTERKLFNADIACMTFSEISEGELNSRFLALGTVDNAVRIISLDPNDMLMPLSTQSLPCPPESILLIDTPNEDGKGVAAVHLNIGLQNGCLFRNTVDNVTGAIMDTRTRYLGTRPVKLFKVQCQGRSAILCTSSRSWLLYHFQRRFHLTPLSYANLEYAASFCSNQCSEGIVAISASTLRIIAAEKLGVAFNVQSFEHKMTPRRVAVHPSMPCLIVIETDHASYTEVTKNIKRNQMAADVEAMASDETEAQLAQEIATNLRERRLDERVYGAPRAARGKWASAISLISATSGDKLSYFELPQDENAKCVALVQFSKHPNEAMVLVGCGVNEVLNVHDIDPNDTSIRPTRGCVYTFHLSANGDRFDFLHRTETPLPVGAIHDFRGMALVGFGRFLRMYDIGQKKLLAKCENKNFPVSIVNIQSTGQRIIVSDSQESVHFLRYRKGDNQLVVFADDTTPRYVTCVCVLDYHTVAVADKFGNLAVVRLPERVNEDVQDDPTVSKSVWDRGWLNGASQKVELVSNFFIGDTITSLQKTSLMPGANEALVYTTIGGAIGCLVSFMSKDEVDFFTNLEMHVRSEYPPLCGRDHLAYRSYYAPCKSVIDGDICEQFSLMDTQKQKDVAEELGKTVSEISKKLEDIRTRYAF,not soluble
5,MHLYYLGPKGTFSYLAAKQFESHEQYDFIPLSNLHEVIQSVSKDKQAVGIVPIENSIEGTINIVADSLAHHDVYAHGEIQLDIDFSLYGHHSNSLDDIHKVYSIAPAISQTINYIHRQQFDYDYVDSTIQSLNMIKDGIGAIAPLGSGETYGYHTLDQHIQDYPHNVTRFLVVKNHTHFIEHPNTTIFLITPKYDKPGLLASVLNTFTLFNINLSWIESRPLKTQLGMYHFYVQADTAINNDVNKIISILETLDFQVKIIGAFNKKN,not soluble
6,MHNISAKKFLGYLKNKCLEFGVKVIEGNPAYTSIKCPNCGSRLSQLYKLADERALPSRLMYCFDCGFYADRDTVAVFNLIKRFTGLYPFSPKSNEPIAEGTVFPDEAMGLEHHHHHH,soluble
7,MHYCPGCSHGVVHKLIAEVIEEMGLTEETIGIAPVGCSVFAYRYIDIDWQEAAHGRAPALATAVKRLNPSKLVFTYQGDGDLAAIGTAETIHAANRGENIAIIFINNGIYGMTGGQMAPTTLEGMVTATCPQGRNVELNGYPLKIADMLALLDGTCLVTRQTVHNAAAVRKTKKMIQKAFENSMNRKGTSIVEVVSTCNTGWKMSPAASNDWMMENMAKQYPLGDLKNID,not soluble
8,MIAEAAAVEVQANEAPVVAPIMYKVESNDGKVFEISDEAVKQSNILSNLISTCAPEDVASMDPIPITNVTGNILKMVIEWCEKHKGEALPVEDDSVPKNINVPEWDTNFLKIDNEVLFDLIVACNYLDVPGLMNYGCKMVANMAIGKSPDELRIIFAIPTDEEDEAAERAAKEKAEAEKKAIADKDAAEPSTSK,soluble
9,MIAEFESRILALIDGMVDHASDDELFASGYLRGHLTLAIAELESGDDHSAQAVHTTVSQSLEKAIGAGELSPRDQALVTDMWENLFQQASQL,not soluble
10,MIAIISLPGISMASSKSLQQAIANIKIWHKGEQRAPHKPLLLLYVLAGYLNGHPRLFDYGTEIYEPLHSLLERFGPQRSQYRPDMPFWRLQGDGIWQLHNAERCSTAGSSRQPPVKELNEYHVAGGFDEQHYALVTGNKKLINTLAQQILEAHFTESIQEEIADELGFDLQQTRKQRDPLFRKNVLRAYNYQCAICGFNMRHDDTTVALEAAHIKWKQHGGPCEIPNGLALCAIHHKAFDKGSIGLDENMRVLVSDAVNGGGIVERLFWDFDGKTIALPQVRKNYPYEGFVGER,not soluble
11,MIAMIVKGGLAMAISNGHVSFKRPAWLGDSITANNGLATVHYHDILAADWDVERSDNLGISGSTIGSRYDAMAVRYQAIPEDADFIAVFGGVNDYGRDQPLGQYGDCDMTTFYGALMMLLTGLQTNWPTVPKLFISAIHIGSDFGGSFSAVTNGLGYRQSDYEAAIAQMTADYGVPHLSLYRDAGMTFAIPAQAAIYSVDTLHPNNAGHRVIARKLQSFLDSHFLEHHHHHH,soluble
12,MIASSPIDAAALRASVAAALDPSTAVATLARFDTHAPRLLDALSTLYGDHADYVTWLPQWLSALGVVAQARPAALRHLDDSRAPGWFGQQDMLGYSAYVDRFAGTLRGVAERVPYLQELGVRYLHLLPFLRARAGDNDGGFAVSDYGQVEPALGSNDDLVALTARLRAANISLCADFVLNHTADDHAWAQAARAGDTRYLDYYHHFADRNAPDQYDTTLVQVFPQTAPGNFTWVDETRQWMWTTFYPYQWDLNWSNPAVFGEMALAMLELANLGVEAFRLDSTAYLWKRPGTNCMNQPEAHTILVALRAVADIVAPSVVMKAEAIVPMAELPPYFGSGVQRGHECHLAYHSTLMAAGWSALALQRGDILQDVIAHSPPLPPNCAWLSYVRCHDDIGWNVLQHEAAGTAAQPPFSLREVAQFYANAVPGSYARGESFQSSGDGVHGTNGMSAALVGVQAAHEHADAAAAARAVDRLVLLYAVSLAMPGVPLIYMGDELALPNDTAYLDDAQRRHEGRWLHRPAMAWELAAQRHDASTLAGTVYTRLRALIRLRAGLPALAATQSLGSVALGDARLFALTRGDSFLAVHNFSDVPLPVDLTQTGHALWAVLDTDGTGDAPEPHTELLLPAYGVRWLQRR,soluble
13,MICCLGPRGSYSEKAAVTFSKAINDSEIQFEDSIYNVFKAVETNPEFFGVVPSENSIGGSVSITQDLLLEFPVKILGEVDISINHCLLGYDIKKVTEVLAHPQALAQCGHYITKNNWNITPVDSNAKAAKIVSEEKDEKLAAICGVENAEIYGLNVLDEYIQDFKNNTTRFFLICNKNK,not soluble
14,MIDINLIREKPDYVKERLATRDKELVSLVDKVLELDKRRREIIKRLEALRSERNKLSKEIGKLKREGKDTTEIQNRVKELKEEIDRLEEELRKVEEELKNTLLWIPNLPHPSVPVGEDEKDNVEVRRWGEPRKFDFEPKPHWEIGERLGILDFKRGAKLSGSRFTVIAGWGARLERALINFMLDLHTKKGYKEICPPHLVKPEILIGTGQLPKFEEDLYKCERDNLYLIPTAEVPLTNLYREEILKEENLPIYLTAYTPCYRREAGAYGKDIRGIIRQHQFDKVELVKIVHPDTSYDELEKLVKDAEEVLQLLGLPYRVVELCTGDLGFSAAKTYDIEVWFPSQNKYREISSCSNCEDFQARRMNTRFKDSKTGKNRFVHTLNGSGLAVGRTLAAILENYQQEDGSVVVPEVLRDYVGTDVIRPE,soluble
15,MIDRQTNEPKQKTRIILAPMQGLVDDVMRDLLTRIGGYDECVSEFVRITHTVHSRSIWLKYVPEIANGNKTFSGTPCTVQLLGSDADNMAANALEAVRFGANKIDLNFGCPAPTVNKHKGGAILLKEPELIFHIVKTLRGRLPAHIPLTAKMRLGYEDKSRALECACAIAEGGACGLTVHARTKAEGYEPPAHWEWIRKIRDSVNIPVTANGDVFSLQDYIGIKTISGCNSVMLGRGAVIRPDLARQIKQYENGGPVKDTDFAEVSKWIRQFFELCLTKEANNKYPLARLKQWLGMMKKEFAAAQNLFDRVRTVKDADEVRNILAEFEREMNT,not soluble
16,MIDSRLLAWAYLSKVVEGPNAHLQKLLKEGHDVERIAFGIKHREEWIGEGLLKNTDSRYSIDTAQTDLETIAKLGGRLITPEDDEWPMEELDHAFGFAASGMSDHVRTYQDDALPPHALWIRGGNLRTLSAQSVTLVGTRAISQYGTEVTREFTQNLVSHQWTIISGGALGVDSVAHSEAVRAQGSTIAIAACGLDRSYPSHNRDLFNQIAKSGKGALVSEYPPGTPPQRHRFLTRNRLVAALSQGTVVVEAAWRSGALNTLSWCAGLGRIAMAVPGPVNTAGSLGCHERIRNGSAQMVTSADDVRSLLGAVGAMDSQTQYELNFAATPVQGLTRNELRVFDALDDRGEGREAASIATEAGLTLQLTIFLLIALNKRGIVKRDGTAWSRNAEMP,not soluble
17,MIEAEEQQPCKTDFYSELPKVELHAHLNGSISSHTMKKLIAQKPDLKIHDQMTVIDKGKKRTLEECFQMFQTIHQLTSSPEDILMVTKDVIKEFADDGVKYLELRSTPRRENATGMTKKTYVESILEGIKQSKQENLDIDVRYLIAVDRRGGPLVAKETVKLAEEFFLSTEGTVLGLDLSGDPTVGQAKDFLEPLLEAKKAGLKLALHLSEIPNQKKETQILLDLLPDRIGHGTFLNSGEGGSLDLVDFVRQHRIPLGKAWSFRSSR,soluble
18,MIEFTALDDLSLLRESVSLECKLAQGRDGKGALPDDFWPTYSAMANTDGGIVILGVRERKGQFEVAGIENPDKLRTELFNHLNNRQKVSVNLLRDEDVRAWPVEGKTLLVVEIPRARRQQRPVYLRGNPLGGHTYRRLHEGDRPLPDEDVKRMLAEQVEDSRDERILPGYGLDDLHLESLRAYRQLFANRDPSHPWNALADQAFLRQIGGWRQHRETGEAGLTLAGLLMFGQWSSITEAVPLCFLDYQERPADYATTVQWLDRIVPDGTWSGNVFDFYRRVVGKLTADIKVPFVLKGDIRQDDTPTHKALREALVNTLVHADYTGRISVLVVKEPAGFVLRNPGGLRVPAQQALQGGMSDCRNRTMQQMFLMIGLGERAGSGMSRIVHGWRDLGHELHLRESYEPHEHSVLEMFWAKGRGATLASESSEESSEESSEETGKKILHLLREEPSLTASALARRLQLTPRAIEKQLAKLKAQKRLRRIGPNKGGHWEVGELEHHHHHH,soluble

# Source: the DeepSol protein solubility set
